Reference: the supplement of paper PMC10598134
± gives the standard deviation.

Test: collision cross section of modified peptide (TIMS, N2, iRT-aligned); higher = larger / more extended gas-phase ion
Method in brief: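 On a timsTOF Pro/HT (dda-PASEF, nitrogen, ~2.4 mbar), synthetic peptide pools were analysed after a 120-min nanoflow C18 separation at 60 °C and identified in MaxQuant. Three reference ions served for 1/K0 calibration, with run-wise alignment to the median iRT peptide deviation. Collision cross section comes from the Mason-Schamp equation, using the most abundant feature per charge state averaged over 1–3 technical replicates.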

[1] = charge state: 2, modification: Crotonyl
[2] = charge state: 3, modification: Crotonyl
[3] = charge state: 2, modification: Dimethyl (K)
[4] = charge state: 3, modification: Dimethyl (K)
[5] = charge state: 3, modification: Citrullination (R)
[6] = charge state: 2, modification: Formyl
[7] = charge state: 3, modification: Methyl (R)
[8] = charge state: 2, modification: Malonyl
[9] = charge state: 2, modification: Methyl (R)
[10] = charge state: 2, modification: Trimethyl (K)
[11] = charge state: 3, modification: Trimethyl (K)
[12] = charge state: 2, modification: Succinyl
[13] = charge state: 3, modification: Succinyl
[14] = charge state: 2, modification: Propionyl
[15] = charge state: 3, modification: Propionyl
[16] = charge state: 3, modification: Malonyl
[17] = charge state: 2, modification: hydroxyisobutyryl
[18] = charge state: 3, modification: hydroxyisobutyryl
[19] = charge state: 2, modification: Phospho (Y)
[20] = charge state: 3, modification: GlyGly (K)
[21] = charge state: 2, modification: Butyryl
[22] = charge state: 3, modification: Butyryl

“VYIASSSGSTAIKK [_VYIASSSGSTAIK(Crotonyl)K_]” showed a collision cross section [1] of 419.06 ± 0.81 Å² and a collision cross section [2] of 505.65 ± 0.46 Å².
Sequence “GSLEKGSPEDK [_GSLEK(Dimethyl (K))GSPEDK_]” has a collision cross section [3] of 362.2 ± 0.83 Å² and a collision cross section [4] of 433.68 ± 2.1 Å².
With “DSRGGGGNFGPGPGSNFR [_DSR(Citrullination (R))GGGGNFGPGPGSNFR_]” the collision cross section [5] was 470.03 ± 5.1 Å².
In the case of DFDTALKHYDK [_DFDTALK(Formyl)HYDK_], the collision cross section [6] is reported as 397.93 ± 1.3 Å² and the collision cross section (charge state: 3, modification: Formyl) is reported as 457.98 ± 2.1 Å².
“SGGGYGGDRGGGYGGDR [_SGGGYGGDR(Methyl (R))GGGYGGDR_]” gave a collision cross section [7] of 461.83 ± 3 Å².
Work on LAEEENKAK [_LAEEENK(Malonyl)AK_] yielded a collision cross section [8] of 346.72 ± 0.74 Å².
Work on GRGGPGPAQR [_GR(Methyl (R))GGPGPAQR_] yielded a collision cross section [9] of 327.6 ± 3 Å² and a collision cross section [7] of 431.84 ± 5.1 Å².
For LQLEIDQKK [_LQLEIDQK(Trimethyl (K))K_], the collision cross section [10] was 370.49 ± 1.6 Å² and the collision cross section [11] was 433.51 ± 3.7 Å².
With LGNDFHTNKR [_LGNDFHTNK(Succinyl)R_] the collision cross section [12] was 377.52 ± 0.24 Å² and the collision cross section [13] was 436.15 ± 2.9 Å².
LDEKENLSAK [_LDEK(Propionyl)ENLSAK_] showed a collision cross section [14] of 369.99 ± 0.94 Å².
In the case of “FGDSRGGGGNFGPGPGSNFR [_FGDSR(Citrullination (R))GGGGNFGPGPGSNFR_]”, the collision cross section [5] is reported as 490.23 ± 0.77 Å².
TLDEILQEKK [_TLDEILQEK(Malonyl)K_] showed a collision cross section [8] of 380.87 ± 4.1 Å².
With “VPTTEKPTVTVNFR [_VPTTEK(Dimethyl (K))PTVTVNFR_]” the collision cross section [4] was 496.28 ± 1.7 Å².
For “SGNLTEDDKHNNAK [_SGNLTEDDK(Propionyl)HNNAK_]”, the collision cross section [14] was 423.13 ± 0.36 Å² and the collision cross section [15] was 471.16 Å².
With “LGNDFHTNKR [_LGNDFHTNK(Trimethyl (K))R_]” the collision cross section [11] was 415.91 ± 2.1 Å².
Sequence “VFIGNLNTLVVKKK [_VFIGNLNTLVVK(Malonyl)KK_]” has a collision cross section [16] of 517.22 Å².
FDDTNPEKEEAK [_FDDTNPEK(Crotonyl)EEAK_] showed a collision cross section [1] of 399.58 ± 0.79 Å² and a collision cross section [2] of 439.29 Å².
With “GAPGGRGAQLSVPSPAR [_GAPGGR(Methyl (R))GAQLSVPSPAR_]” the collision cross section [7] was 494.35 ± 0.66 Å².
Sequence “TFGKAAGPSLSHTSGGTQSK [_TFGK(Crotonyl)AAGPSLSHTSGGTQSK_]” has a collision cross section [2] of 515.47 ± 1.3 Å².
ASEALLKQLK [_ASEALLK(Propionyl)QLK_] gave a collision cross section [14] of 375.9 ± 0.65 Å².
Sequence “GEVGAGAGPGAQAGPSAKR [_GEVGAGAGPGAQAGPSAK(hydroxyisobutyryl)R_]” has a collision cross section [17] of 426.95 ± 0.56 Å² and a collision cross section [18] of 486.12 ± 1.9 Å².
Work on “IISSIEQKEENK [_IISSIEQK(Dimethyl (K))EENK_]” yielded a collision cross section [3] of 410.65 ± 1.1 Å² and a collision cross section [4] of 464.23 ± 1.4 Å².
With DFDTALKHYDK [_DFDTALK(Malonyl)HYDK_] the collision cross section [8] was 405.79 ± 0.59 Å².
“SLGEPAAGEGSAKR [_SLGEPAAGEGSAK(Malonyl)R_]” showed a collision cross section [8] of 366.04 ± 1.1 Å².
“SITHSTVGSKGEK [_SITHSTVGSK(hydroxyisobutyryl)GEK_]” showed a collision cross section [17] of 401.03 ± 1.4 Å² and a collision cross section [18] of 446.16 ± 2.7 Å².
Sequence VNALKNLQVK [_VNALK(Formyl)NLQVK_] has a collision cross section [6] of 363.1 ± 0.39 Å².
In the case of DYGNSPLHR [_DY(Nitro (Y))GNSPLHR_], the collision cross section (charge state: 2, modification: Nitro (Y)) is reported as 341.59 ± 0.55 Å² and the collision cross section (charge state: 3, modification: Nitro (Y)) is reported as 437.8 ± 1.2 Å².
“LLIVSTTPYSEKDTK [_LLIVSTTPYSEK(hydroxyisobutyryl)DTK_]” showed a collision cross section [17] of 461.48 ± 0.76 Å² and a collision cross section [18] of 486.54 ± 2.8 Å².
Work on “GTITVSAQELKDNR [_GTITVSAQELK(Succinyl)DNR_]” yielded a collision cross section [12] of 421.79 ± 0.53 Å² and a collision cross section [13] of 480.4 ± 2.5 Å².
“DAIHFYNKSLAEHR [_DAIHFYNK(Dimethyl (K))SLAEHR_]” gave a collision cross section [4] of 497.01 ± 1.6 Å².
For “SLGEPAAGEGSAKR [_SLGEPAAGEGSAK(Trimethyl (K))R_]”, the collision cross section [10] was 404.92 ± 19 Å² and the collision cross section [11] was 462.02 ± 2.7 Å².
For TPNLYIYSKK [_TPNLYIYSK(Propionyl)K_], the collision cross section [14] was 384.03 Å².
Sequence “DAEAAEATAEGALKAEK [_DAEAAEATAEGALK(Gluratylation)AEK_]” has a collision cross section (charge state: 2, modification: Glutarylation) of 438.1 ± 0.96 Å² and a collision cross section (charge state: 3, modification: Glutarylation) of 545.34 ± 0.13 Å².
“VFIGNLNTLVVKK [_VFIGNLNTLVVK(Crotonyl)K_]” showed a collision cross section [1] of 413.58 ± 0.34 Å² and a collision cross section [2] of 479.51 Å².
“INNFSADIKDSK [_INNFSADIK(Dimethyl (K))DSK_]” gave a collision cross section [3] of 406.51 ± 0.23 Å² and a collision cross section [4] of 455.06 ± 5.9 Å².
Sequence “GSLGAQKLANTCFNEIEK [_GSLGAQK(Malonyl)LANTCFNEIEK_]” has a collision cross section [8] of 466.18 Å² and a collision cross section [16] of 511.38 Å².
With “SLGEPAAGEGSAKR [_SLGEPAAGEGSAK(Dimethyl (K))R_]” the collision cross section [3] was 415.22 ± 2 Å² and the collision cross section [4] was 473.88 ± 2.6 Å².
Sequence “VQGGALEDSQLVAGVAFKK [_VQGGALEDSQLVAGVAFK(Succinyl)K_]” has a collision cross section [12] of 480.13 ± 1.2 Å².
Work on “DSSPTTNSKLSALQR [_DSSPTTNSK(Propionyl)LSALQR_]” yielded a collision cross section [14] of 430.82 ± 2.1 Å² and a collision cross section [15] of 498.95 Å².
With “LGGDLGTYVINK [_LGGDLGTY(Phospho (Y))VINK_]” the collision cross section [19] was 375.25 ± 0.063 Å².
For “SSGPGGQNVNKVNSK [_SSGPGGQNVNK(Trimethyl (K))VNSK_]”, the collision cross section [10] was 400.23 ± 1.6 Å² and the collision cross section [11] was 442.26 ± 2.4 Å².
In the case of “LSQEDPDYGIR [_LS(HexNAc (ST))QEDPDYGIR_]”, the collision cross section (charge state: 2, modification: HexNAc (ST)) is reported as 396.72 ± 0.76 Å².
In the case of “GDRGEIGPPGPR [_GDRGEIGPP(Hydroxyproline)GPR_]”, the collision cross section (charge state: 2, modification: Hydroxyproline) is reported as 368.56 ± 1.9 Å² and the collision cross section (charge state: 3, modification: Hydroxyproline) is reported as 424.63 ± 1.2 Å².
With “DLSTVEALQNLKNLK [_DLSTVEALQNLK(GlyGly (K))NLK_]” the collision cross section (charge state: 2, modification: GlyGly (K)) was 473.91 ± 4.8 Å² and the collision cross section [20] was 514.39 ± 5.7 Å².
With “YSRGAGLGFSTAPNK [_YSR(Citrullination (R))GAGLGFSTAPNK_]” the collision cross section (charge state: 2, modification: Citrullination (R)) was 397.83 ± 0.22 Å².
Work on ALLQAKASGK [_ALLQAK(Propionyl)ASGK_] yielded a collision cross section [14] of 350.75 ± 0.49 Å².
With “DSRGGGGNFGPGPGSNFR [_DSR(Methyl (R))GGGGNFGPGPGSNFR_]” the collision cross section [7] was 480.39 ± 3.1 Å².
“VPTTEKPTVTVNFR [_VPTTEK(Trimethyl (K))PTVTVNFR_]” gave a collision cross section [11] of 499.21 ± 1.6 Å².
“VFIGNLNTLVVKK [_VFIGNLNTLVVK(hydroxyisobutyryl)K_]” gave a collision cross section [17] of 416.95 ± 0.83 Å² and a collision cross section [18] of 490.45 ± 2.8 Å².
With “GTISAPGKVVTAAAQAK [_GTISAPGK(Trimethyl (K))VVTAAAQAK_]” the collision cross section [10] was 476.61 ± 0.99 Å² and the collision cross section [11] was 496.52 ± 0.86 Å².
“TQDQISNIKYHEEFEK [_TQDQISNIK(GlyGly (K))YHEEFEK_]” gave a collision cross section [20] of 559.05 ± 0.57 Å².
Work on PGTPAGYGRGR [_PGTPAGYGR(Methyl (R))GR_] yielded a collision cross section [9] of 362.47 ± 6.7 Å² and a collision cross section [7] of 449.19 ± 8.3 Å².
Work on SRFYSGFNSR [_SR(Methyl (R))FYSGFNSR_] yielded a collision cross section [9] of 375.99 ± 1.6 Å² and a collision cross section [7] of 436.64 ± 3.4 Å².
For “IHVQSSSDSSDEPAEKR [_IHVQSSSDSSDEPAEK(Dimethyl (K))R_]”, the collision cross section [4] was 519.62 ± 3.4 Å².
For “FGTINIVHPKLGSYTK [_FGTINIVHPK(Trimethyl (K))LGSYTK_]”, the collision cross section [11] was 502.05 ± 2.2 Å².
In the case of “LFVGGIKEDTEEHHLR [_LFVGGIK(Succinyl)EDTEEHHLR_]”, the collision cross section [12] is reported as 497.55 Å² and the collision cross section [13] is reported as 541.97 ± 1.1 Å².
In the case of “GTVPDDAVEALADSLGKK [_GTVPDDAVEALADSLGK(Acetyl (K))K_]”, the collision cross section (charge state: 2, modification: Acetyl (K)) is reported as 449.76 ± 3.1 Å² and the collision cross section (charge state: 3, modification: Acetyl (K)) is reported as 527.69 ± 0.69 Å².
With “PANEKATDDYHYEK [_PANEK(Biotin)ATDDYHYEK_]” the collision cross section (charge state: 3, modification: Biotin) was 529.25 ± 3.6 Å².
Sequence YLHDESGLNR [_Y(Phospho (Y))LHDESGLNR_] has a collision cross section [19] of 372.11 ± 0.77 Å² and a collision cross section (charge state: 3, modification: Phospho (Y)) of 460.83 ± 0.1 Å².
“VNVEAPDVNLEGLGGKLK [_VNVEAPDVNLEGLGGK(Trimethyl (K))LK_]” gave a collision cross section [10] of 469.62 ± 0.99 Å² and a collision cross section [11] of 545.57 ± 1.8 Å².
In the case of “VNIGQGSHPQKVK [_VNIGQGSHPQK(hydroxyisobutyryl)VK_]”, the collision cross section [17] is reported as 435.4 ± 0.33 Å² and the collision cross section [18] is reported as 488.96 ± 2.8 Å².
Work on “SITHSTVGSKGEK [_SITHSTVGSK(Dimethyl (K))GEK_]” yielded a collision cross section [3] of 401.87 ± 2.2 Å² and a collision cross section [4] of 464.51 ± 2.1 Å².
For “SLEEEGAAHSGKR [_SLEEEGAAHSGK(Butyryl)R_]”, the collision cross section [21] was 418.69 ± 0.77 Å² and the collision cross section [22] was 478.81 ± 1.8 Å².
For “GEGGFGGRGGGR [_GEGGFGGR(Methyl (R))GGGR_]”, the collision cross section [9] was 345.55 ± 1 Å² and the collision cross section [7] was 413.1 Å².
With “SLFFGGKGAPLQR [_SLFFGGK(Butyryl)GAPLQR_]” the collision cross section [21] was 406.8 ± 0.75 Å² and the collision cross section [22] was 492.14 ± 2.1 Å².
